# Earlier results, collected in publication PMC6359176.
# Target: α-synuclein preformed fibrils (Homo sapiens) (UniProt P37840)
substance,measurement,value
LAG3 (from UniProt Q61790),Kd,0.077 µM
